The values that follow come from patent publication US20250002594A1 (SHANGHAI EPIMAB BIOTHERAPEUTICS, published 2025).

Test [1] deals with T1, recombinant human CD132 (human, UniProt P31785 23-262, limits assumed).
T1 construct: also called IL-2Rγ
T1 sequence (looked up): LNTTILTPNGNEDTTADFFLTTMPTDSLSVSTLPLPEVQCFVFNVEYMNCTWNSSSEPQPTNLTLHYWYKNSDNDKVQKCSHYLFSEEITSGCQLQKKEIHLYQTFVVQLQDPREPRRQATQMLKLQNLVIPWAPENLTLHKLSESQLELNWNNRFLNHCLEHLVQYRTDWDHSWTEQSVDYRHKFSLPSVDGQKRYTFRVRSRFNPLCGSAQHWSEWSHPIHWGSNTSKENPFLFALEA
The test can be described thus: hybridoma supernatant screening, method not described.

In test [2] the target is T2, human CD132 on HEK293 cells (human, UniProt P31785 23-369).
T2 construct: whole, on cells; also called cell surface CD132
T2 sequence (looked up): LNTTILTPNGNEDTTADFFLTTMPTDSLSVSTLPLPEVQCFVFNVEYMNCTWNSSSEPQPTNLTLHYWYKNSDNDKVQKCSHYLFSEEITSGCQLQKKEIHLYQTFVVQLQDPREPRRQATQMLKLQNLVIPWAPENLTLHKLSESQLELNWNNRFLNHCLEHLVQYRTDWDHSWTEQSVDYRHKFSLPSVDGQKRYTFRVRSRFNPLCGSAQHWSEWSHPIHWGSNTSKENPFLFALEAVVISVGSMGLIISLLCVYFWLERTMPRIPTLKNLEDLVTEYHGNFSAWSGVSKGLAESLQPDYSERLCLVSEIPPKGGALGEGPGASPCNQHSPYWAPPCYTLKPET
The test can be described thus: Flow cytometry (MFI) on HEK293 cells overexpressing human CD132; the table gives no unit, the axis is Fab conc.(nM); the curve has no upper plateau in the range shown. As to the method:
(§1) Briefly, a 96-well plate was seeded with 3×10⁵ cells each well, centrifuged at 400 g for 5 minutes and supernatants discarded, then added 100 μl of antibody (5× serial dilutions, 0.0064 to 100 nM) each well and gently mixed. After 60 minutes of incubation at 4° C., plates were washed several times to remove excess antibodies. Secondary fluorochrome-conjugated goat anti-human IgG antibody (Jackson Immunoresearch, Cat No. 109-606-098) was then added and incubated with cells at 4° C. for 20 minutes. After another round of centrifugation and washing, cells were resuspended in assay buffer (1X PBS containing 2% FBS) for reading on a flow-cytometer. Median Fluorescence Intensity (MFI) readouts were plotted against antibody concentration and analyzed with GraphPad Prism 6.0 software.
(Flow cytometry measures light scatter and fluorescence of single cells or particles in a stream.)

For test [3], the target named is T3, CD122/CD132 complex on HEK-Blue IL-2 cells (UniProt P14784 27-551; P31785 23-369, limits assumed).
T3 sequence (looked up) 1: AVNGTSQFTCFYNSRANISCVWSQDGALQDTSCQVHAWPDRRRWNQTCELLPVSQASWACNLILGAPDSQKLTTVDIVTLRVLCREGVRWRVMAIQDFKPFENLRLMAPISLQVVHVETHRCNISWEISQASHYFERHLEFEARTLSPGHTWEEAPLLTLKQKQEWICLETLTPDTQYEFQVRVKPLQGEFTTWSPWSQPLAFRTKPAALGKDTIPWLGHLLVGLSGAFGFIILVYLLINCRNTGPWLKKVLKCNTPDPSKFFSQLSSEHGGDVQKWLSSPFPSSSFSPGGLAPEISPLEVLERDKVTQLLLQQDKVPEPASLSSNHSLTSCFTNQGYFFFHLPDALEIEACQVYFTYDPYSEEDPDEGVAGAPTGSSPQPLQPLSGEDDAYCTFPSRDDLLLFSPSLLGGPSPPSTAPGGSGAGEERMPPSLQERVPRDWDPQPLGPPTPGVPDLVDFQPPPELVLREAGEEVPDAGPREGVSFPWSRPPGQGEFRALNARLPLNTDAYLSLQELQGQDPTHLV
T3 sequence (looked up) 2: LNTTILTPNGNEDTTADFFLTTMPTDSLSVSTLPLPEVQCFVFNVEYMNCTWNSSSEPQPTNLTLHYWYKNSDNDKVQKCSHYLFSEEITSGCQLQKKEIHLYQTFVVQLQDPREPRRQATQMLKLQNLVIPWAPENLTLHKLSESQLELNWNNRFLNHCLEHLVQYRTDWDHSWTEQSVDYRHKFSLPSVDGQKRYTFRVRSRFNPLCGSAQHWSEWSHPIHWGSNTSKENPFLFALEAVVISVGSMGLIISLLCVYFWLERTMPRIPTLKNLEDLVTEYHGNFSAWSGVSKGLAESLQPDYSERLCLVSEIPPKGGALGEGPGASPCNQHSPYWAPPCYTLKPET
The test can be described thus: cell-based or functional assay.

The target of test [4] is T1, recombinant human CD132. The test can be described thus: ELISA, plate coated with 1 µg/mL recombinant human CD132. As to the method: (§2) Plates were washed three times with PBST, added HRP labeled anti-human IgG secondary antibody and incubated at RT for 15 minutes, then washed 5 times with PBST. For color development, 100 μl of tetramethylbenzidine (TMB) chromogenic solution was added to each well, the reaction was quenched by 1 N HCl and absorbance at 450 nm was measured on a microplate reader. Binding signals were plotted against antibody concentration with GraphPad Prism 6.0 software and EC₅₀ values were calculated accordingly.
Background: In an ELISA, binding on a coated surface is turned into a signal by an enzyme label.

Test [5] concerns the target T4, recombinant human CD122 (human, UniProt P14784 27-239, limits assumed).
T4 construct: also called IL-2Rβ
T4 sequence (looked up): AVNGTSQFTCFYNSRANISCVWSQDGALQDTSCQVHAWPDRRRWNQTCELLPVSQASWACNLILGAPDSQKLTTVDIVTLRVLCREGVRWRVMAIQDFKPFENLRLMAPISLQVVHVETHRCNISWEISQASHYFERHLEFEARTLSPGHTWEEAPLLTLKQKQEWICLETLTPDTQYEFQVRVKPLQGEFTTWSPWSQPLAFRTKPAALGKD
The test can be described thus: ELISA, plate coated with 1 µg/mL recombinant human CD122. As to the method: as §2

For test [6], the target named is T5, human CD122 on HEK293 cells (human, UniProt P14784 27-551).
T5 construct: whole, on cells; also called cell surface CD122
T5 sequence (looked up): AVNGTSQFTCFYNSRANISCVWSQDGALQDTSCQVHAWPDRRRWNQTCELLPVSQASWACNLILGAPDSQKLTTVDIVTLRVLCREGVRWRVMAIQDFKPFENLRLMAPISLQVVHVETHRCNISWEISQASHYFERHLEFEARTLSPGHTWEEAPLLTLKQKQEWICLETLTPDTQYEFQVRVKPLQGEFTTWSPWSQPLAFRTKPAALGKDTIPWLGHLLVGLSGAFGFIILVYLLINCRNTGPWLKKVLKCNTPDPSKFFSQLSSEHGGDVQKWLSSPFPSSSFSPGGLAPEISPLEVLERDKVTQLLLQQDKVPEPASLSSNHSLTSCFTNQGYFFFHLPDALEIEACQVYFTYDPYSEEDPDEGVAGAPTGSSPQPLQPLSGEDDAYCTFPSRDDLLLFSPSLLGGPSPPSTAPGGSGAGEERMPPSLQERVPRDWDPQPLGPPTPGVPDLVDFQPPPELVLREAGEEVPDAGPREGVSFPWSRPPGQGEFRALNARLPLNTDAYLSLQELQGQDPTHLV
The test can be described thus: Flow cytometry (MFI) on HEK293 cells overexpressing human CD122; the table gives no unit, the axis is Fab conc.(nM). How it is done:
as §1

Test [7] has as its target T4, recombinant human CD122. The test can be described thus: hybridoma supernatant screening, method not described.

B1: CD132-mAb17 (antibody, V domains shown)
VH: EVQLQQPGSELVRPGASVKLSCKASGYTFTSYWMHWMKQRPGQGLEWIGHIYLGGGATNYAEKFRSKATLTADTSSSTAYMQLSSLTSEDSAVYYCTRSQPYYYGMDSWGQGTSVTVSS
VL: DIQMTQTPSSLSASLGDRVTISCRASQDISNYLNWYQQKPDGTVKLLIYYKSRLHSGVPSRFSGSGSGTEYSLTINNLEQEDFATYFCHQGHTIPFTFGSGTKLEIK
notes: Mouse hybridoma antibody; also called clone #CD132-mAb17; mAb CD132-mAb17
For B1, the binding result in the test with recombinant human CD132 [1] is recorded as “binds”.

B2: FIT2019-86b (bispecific antibody, human IgG1, kappa, L234A L235A)
chain 1: not shown
chain 2: QVQLQQSGPELVKPGASVKMSCKASGYRFSDYVISWVKQRSGQGLEWIGEIYPGDGNTYYNEMFKGRATLTADKSPNTAYMKLSSLTSEDSALYFCARGSYTYDNYAMDFWGQGTSVTVSSASTKGPSVFPLAPSSKSTSGGTAALGCLVKDYFPEPVTVSWNSGALTSGVHTFPAVLQSSGLYSLSSVVTVPSSSLGTQTYICNVNHKPSNTKVDKKVEPKSC
chain 3: DIQMTQTPSSLSASLGDRVTISCRASQDISNYLNWYQQKPDGTVKLLIYYKSRLHSGVPSRFSGSGSGTEYSLTINNLEQEDFATYFCHQGHTIPFTFGSGTKLEIKRTVAAPSVFIFPPSDEQLKSGTASVVCLLNNFYPREAKVQWKVDNALQSGNSQESVTEQDSKDSTYSLSSTLTLSKADYEKHKVYACEVTHQGLSSPVTKSFNRGEC
notes: FIT-Ig with mouse V domains of CD122-mAb77 (outer Fab) and CD132-mAb17 (inner Fab), human constant domains; also called anti-CD122/CD132 FIT2019-86b
The term EC50 denotes the concentration giving half of the maximal effect. Take B2: the EC50 in test [2] was found to be 75.6 nM; with recombinant human CD132 [4], 0.662 nM; with recombinant human CD122 [5], 0.324 nM; in test [6], 2.2 nM. Moreover, in test [3], the “EC50 from SEAP reporter gene assay” value is 0.125 nM.

B3: CD122-mAb77 (antibody, V domains shown)
VH: QVQLQQSGPELVKPGASVKMSCKASGYRFSDYVISWVKQRSGQGLEWIGEIYPGDGNTYYNEMFKGRATLTADKSPNTAYMKLSSLTSEDSALYFCARGSYTYDNYAMDFWGQGTSVTVSS
VL: DVLMTQTPLSLPVSLGDQASISCRSSQNIVHSNGNTYLEWYLQKPGQSPKLLIYKVSNRFSGVPDRFSGSGSGTDFTLKISRVEAEDLGLYYCFQGSHIPWTFGGGTKLEIK
notes: Mouse hybridoma antibody; also called clone #CD122-mAb77
As for B3, the binding result in the test with recombinant human CD122 [7] is “binds”.
